Experimental data as given in US20210030857A1 (NGM BIOPHARMACEUTICALS, published 2021).

Key:
[1] = molecular target: T1, cynomolgus monkey beta klotho protein (soluble, used in Biacore) (cynomolgus monkey (Macaca fascicularis), UniProt Q86Z14 53-996 (human entry), limits assumed); assay: Biacore SPR (as in Example 2)
T1 construct: Protein in solution; also called Cyno KLB; cyKLB
T1 chain: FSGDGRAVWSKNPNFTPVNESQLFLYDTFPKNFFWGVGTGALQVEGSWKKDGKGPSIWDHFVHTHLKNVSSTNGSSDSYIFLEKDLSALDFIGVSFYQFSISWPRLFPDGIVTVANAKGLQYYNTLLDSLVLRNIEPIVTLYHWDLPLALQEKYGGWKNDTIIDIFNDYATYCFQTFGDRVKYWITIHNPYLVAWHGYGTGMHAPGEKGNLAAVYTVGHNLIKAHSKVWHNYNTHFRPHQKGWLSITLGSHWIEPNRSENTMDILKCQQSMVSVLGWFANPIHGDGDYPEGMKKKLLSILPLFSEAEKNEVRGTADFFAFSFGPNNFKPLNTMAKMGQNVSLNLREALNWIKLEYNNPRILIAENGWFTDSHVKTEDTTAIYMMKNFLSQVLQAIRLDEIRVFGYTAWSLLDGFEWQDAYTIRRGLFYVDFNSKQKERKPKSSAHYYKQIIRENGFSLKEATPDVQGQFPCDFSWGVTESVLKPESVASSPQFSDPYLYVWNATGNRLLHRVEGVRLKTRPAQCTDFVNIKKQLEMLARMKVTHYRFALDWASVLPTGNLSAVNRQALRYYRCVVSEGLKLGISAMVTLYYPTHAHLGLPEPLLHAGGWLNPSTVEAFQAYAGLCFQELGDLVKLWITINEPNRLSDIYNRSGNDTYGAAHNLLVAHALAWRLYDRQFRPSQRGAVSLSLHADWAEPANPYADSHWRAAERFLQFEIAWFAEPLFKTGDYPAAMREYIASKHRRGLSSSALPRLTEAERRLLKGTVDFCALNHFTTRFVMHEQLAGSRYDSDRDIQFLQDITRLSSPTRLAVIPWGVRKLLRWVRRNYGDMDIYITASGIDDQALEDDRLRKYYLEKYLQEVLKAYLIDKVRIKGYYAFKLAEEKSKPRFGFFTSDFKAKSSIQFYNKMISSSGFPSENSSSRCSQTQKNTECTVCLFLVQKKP

[2] = molecular target: T2, human beta klotho protein (soluble, used in Biacore) (human, UniProt Q86Z14 53-997, limits assumed); assay: Biacore SPR (as in Example 2)
T2 construct: also called HuKLB; huKLB
T2 sequence: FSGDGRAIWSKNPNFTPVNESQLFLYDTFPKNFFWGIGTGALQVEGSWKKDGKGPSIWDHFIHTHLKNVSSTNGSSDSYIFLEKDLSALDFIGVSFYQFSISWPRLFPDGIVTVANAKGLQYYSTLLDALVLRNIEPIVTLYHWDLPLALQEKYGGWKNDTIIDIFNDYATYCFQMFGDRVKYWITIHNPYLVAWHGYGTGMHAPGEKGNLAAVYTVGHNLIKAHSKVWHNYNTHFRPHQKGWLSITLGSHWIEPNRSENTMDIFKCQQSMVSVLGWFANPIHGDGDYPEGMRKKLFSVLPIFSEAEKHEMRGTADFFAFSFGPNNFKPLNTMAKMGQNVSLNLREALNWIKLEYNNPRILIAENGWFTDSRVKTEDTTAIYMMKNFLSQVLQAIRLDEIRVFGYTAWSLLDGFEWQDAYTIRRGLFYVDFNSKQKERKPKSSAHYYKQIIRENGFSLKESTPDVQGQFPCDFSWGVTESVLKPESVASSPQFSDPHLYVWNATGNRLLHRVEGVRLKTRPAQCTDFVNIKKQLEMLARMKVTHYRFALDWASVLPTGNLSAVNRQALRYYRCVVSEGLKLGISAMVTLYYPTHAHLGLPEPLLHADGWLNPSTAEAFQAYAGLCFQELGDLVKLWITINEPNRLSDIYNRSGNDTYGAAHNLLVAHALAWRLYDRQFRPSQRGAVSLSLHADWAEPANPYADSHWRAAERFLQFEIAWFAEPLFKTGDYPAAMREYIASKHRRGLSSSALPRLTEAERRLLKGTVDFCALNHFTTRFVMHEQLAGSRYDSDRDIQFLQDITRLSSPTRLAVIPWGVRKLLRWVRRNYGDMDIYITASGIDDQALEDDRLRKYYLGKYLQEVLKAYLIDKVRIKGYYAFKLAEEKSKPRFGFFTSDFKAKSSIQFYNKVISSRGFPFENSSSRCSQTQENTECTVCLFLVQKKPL

[3] = molecular target: T3, human beta klotho / human FGFR1c receptor complex on cells (human, UniProt Q86Z14 1-1044; P11362 22-822); assay: cell-based or functional assay
[4] = molecular target: T3, human beta klotho / human FGFR1c …; assay: cell-based or functional assay; remark: listed apart in the source
[5] = molecular target: T3, human beta klotho / human FGFR1c …; assay: cell-based or functional assay; remark: listed apart in the source
[6] = molecular target: cynomolgus beta klotho / human FGFR1c receptor complex on cells (cynomolgus monkey (Macaca …)); assay: cell-based or functional assay
cynomolgus beta klotho / human FGFR1c receptor complex on cells (cynomolgus monkey (Macaca …)), sequence (chain, as listed by the source limits assumed, chain 1 of 2): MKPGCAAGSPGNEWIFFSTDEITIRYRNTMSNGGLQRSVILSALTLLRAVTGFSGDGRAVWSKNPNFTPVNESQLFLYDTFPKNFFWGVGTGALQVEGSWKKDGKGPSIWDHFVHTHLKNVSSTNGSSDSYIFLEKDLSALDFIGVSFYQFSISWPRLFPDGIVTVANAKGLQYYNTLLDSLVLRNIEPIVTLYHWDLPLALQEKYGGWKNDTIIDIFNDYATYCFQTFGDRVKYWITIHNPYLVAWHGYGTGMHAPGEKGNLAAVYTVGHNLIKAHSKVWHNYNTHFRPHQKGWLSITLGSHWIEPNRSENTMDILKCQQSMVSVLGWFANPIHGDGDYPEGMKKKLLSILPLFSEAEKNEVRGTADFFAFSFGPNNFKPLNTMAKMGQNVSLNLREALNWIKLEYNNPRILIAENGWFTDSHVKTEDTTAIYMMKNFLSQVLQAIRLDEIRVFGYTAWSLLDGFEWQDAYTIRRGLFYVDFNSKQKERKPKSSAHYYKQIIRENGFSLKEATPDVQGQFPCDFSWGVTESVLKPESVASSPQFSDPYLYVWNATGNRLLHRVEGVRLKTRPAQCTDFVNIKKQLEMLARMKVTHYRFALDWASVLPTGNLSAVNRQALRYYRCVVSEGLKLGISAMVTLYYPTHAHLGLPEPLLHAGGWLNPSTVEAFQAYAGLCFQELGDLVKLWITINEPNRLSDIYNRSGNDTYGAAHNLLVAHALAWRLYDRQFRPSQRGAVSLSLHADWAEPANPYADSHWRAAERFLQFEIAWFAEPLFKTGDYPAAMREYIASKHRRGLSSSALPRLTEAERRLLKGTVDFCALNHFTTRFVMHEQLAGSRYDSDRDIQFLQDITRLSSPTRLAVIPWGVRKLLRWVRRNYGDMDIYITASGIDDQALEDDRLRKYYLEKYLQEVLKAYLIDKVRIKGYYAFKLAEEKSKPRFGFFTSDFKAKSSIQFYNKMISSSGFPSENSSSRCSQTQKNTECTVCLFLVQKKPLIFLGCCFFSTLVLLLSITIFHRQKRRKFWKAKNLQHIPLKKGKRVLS
cynomolgus beta klotho / human FGFR1c receptor complex on cells (cynomolgus monkey (Macaca …)), sequence (chain, as listed by the source limits assumed, chain 2 of 2): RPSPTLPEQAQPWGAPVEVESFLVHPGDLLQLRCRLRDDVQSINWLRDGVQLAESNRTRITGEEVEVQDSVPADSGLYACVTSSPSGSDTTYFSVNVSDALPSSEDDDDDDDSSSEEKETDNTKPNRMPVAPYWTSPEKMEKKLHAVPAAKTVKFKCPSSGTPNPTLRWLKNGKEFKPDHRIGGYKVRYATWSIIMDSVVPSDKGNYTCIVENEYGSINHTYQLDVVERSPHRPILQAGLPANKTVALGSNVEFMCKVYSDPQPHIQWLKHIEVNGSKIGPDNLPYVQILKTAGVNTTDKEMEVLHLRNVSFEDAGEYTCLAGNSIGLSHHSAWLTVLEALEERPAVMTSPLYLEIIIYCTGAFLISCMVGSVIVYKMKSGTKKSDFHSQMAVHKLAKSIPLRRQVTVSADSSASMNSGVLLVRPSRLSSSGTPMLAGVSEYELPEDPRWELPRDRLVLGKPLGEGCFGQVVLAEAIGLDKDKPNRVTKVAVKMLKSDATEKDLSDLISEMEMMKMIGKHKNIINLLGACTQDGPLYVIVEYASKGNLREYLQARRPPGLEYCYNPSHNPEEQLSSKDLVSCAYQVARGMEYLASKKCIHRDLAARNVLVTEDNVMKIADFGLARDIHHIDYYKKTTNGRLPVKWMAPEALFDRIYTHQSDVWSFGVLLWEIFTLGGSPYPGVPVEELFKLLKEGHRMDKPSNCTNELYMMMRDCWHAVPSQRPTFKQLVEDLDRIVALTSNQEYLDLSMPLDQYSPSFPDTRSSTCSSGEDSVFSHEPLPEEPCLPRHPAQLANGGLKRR

[7] = molecular target: T4, human beta klotho expressed on cells (human, UniProt Q86Z14 1-1044); assay: FACS competition on HuKLB-overexpressing cells; row antibody unlabelled; competitor 3I13-Alexa488 (labelled, EC10); MFI of the label
T4 construct: also called HuKLB overexpressing cells; Human KLB
T4 sequence: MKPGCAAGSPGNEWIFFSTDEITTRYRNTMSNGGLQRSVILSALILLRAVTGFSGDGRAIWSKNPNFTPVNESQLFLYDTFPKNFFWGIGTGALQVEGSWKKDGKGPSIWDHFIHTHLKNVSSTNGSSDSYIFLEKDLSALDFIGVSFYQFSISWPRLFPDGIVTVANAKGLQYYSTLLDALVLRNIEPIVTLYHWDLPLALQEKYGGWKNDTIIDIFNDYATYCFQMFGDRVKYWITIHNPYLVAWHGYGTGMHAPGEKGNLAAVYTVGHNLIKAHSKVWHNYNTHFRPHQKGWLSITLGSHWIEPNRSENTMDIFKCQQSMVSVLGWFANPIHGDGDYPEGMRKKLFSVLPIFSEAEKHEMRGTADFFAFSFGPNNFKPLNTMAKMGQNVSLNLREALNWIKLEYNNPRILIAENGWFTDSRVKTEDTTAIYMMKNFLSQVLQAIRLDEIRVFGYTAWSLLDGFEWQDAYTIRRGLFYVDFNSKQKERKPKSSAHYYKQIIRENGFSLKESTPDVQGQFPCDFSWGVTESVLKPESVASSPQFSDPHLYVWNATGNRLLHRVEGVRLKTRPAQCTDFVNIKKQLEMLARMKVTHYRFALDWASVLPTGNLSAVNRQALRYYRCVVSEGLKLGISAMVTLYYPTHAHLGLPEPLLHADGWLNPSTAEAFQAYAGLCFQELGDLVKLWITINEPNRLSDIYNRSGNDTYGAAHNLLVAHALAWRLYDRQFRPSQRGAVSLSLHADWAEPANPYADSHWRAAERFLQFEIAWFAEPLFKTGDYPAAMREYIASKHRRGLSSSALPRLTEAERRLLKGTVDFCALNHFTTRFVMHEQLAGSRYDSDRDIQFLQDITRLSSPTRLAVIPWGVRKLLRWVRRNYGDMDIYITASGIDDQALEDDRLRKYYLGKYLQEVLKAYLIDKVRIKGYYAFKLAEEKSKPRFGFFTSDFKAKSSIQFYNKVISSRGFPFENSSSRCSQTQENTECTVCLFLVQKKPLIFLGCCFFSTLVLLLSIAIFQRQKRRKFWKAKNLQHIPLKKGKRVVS
Description: (§1) For example, for competition binding assays by FACS analysis, antibody standards were prepared that were conjugated to a fluorochrome using either A488 or A647 antibody labeling kit (Invitrogen) following manufacturer's instructions. A dose titration of the conjugated antibody standard was evaluated using HuKLB overexpressing cells. The plateau of the maximal signal of antibody binding is EC=100 and the background signal is EC=0. Competition by FACS against the fluorochrome labeled antibody was performed by pre-incubating HuKLB overexpressing cells with hybridoma supernatants for 15 minutes at room temperature. Without washing, an EC=10 concentration of A488 or A647 labelled antibody standard was added. EC=10 for an individual antibody was determined by 10% of signal using the maximum signal as (100%) and background signal as (0%). After 30 minutes at 4° C., cells are washed and analyzed by FACS. […] A partial competing antibody is one sample that show signal between labelled antibody alone and background. Antibodies that show complete competition against the same standard antibody are considered to be in the same bin.
(§2) Representative results are shown in Table 12 below reported as mean fluorescence intensity (MFI).

[8] = molecular target: T4, human beta klotho expressed on cells; assay: FACS competition on HuKLB-overexpressing cells; row antibody unlabelled; competitor 5H23-Alexa647 (labelled, EC10); MFI of the label
Description: as §1, §2

B1: humanized 5H23 antibody vH3-vL2 (antibody, human IgG1, kappa, V domains shown)
VH: QVQLQQSGAEVKKPGASVKVSCKASGYTFTSYDINWVRQAPGQGLEWIGWIYPGDGSTKYNEKFKGKATITRDTSASTAYMELSSLRSEDTAVYFCARSDYYGSRSFAYWGQGTLVTVSS
VL: DIVMTQSPDSLAVSLGERATINCRASKSVSTSGYVYMHWYQQKPGQPPKLLIYLASYLESGVPDRFSGSGSGTDFTLTISSVQAEDVAVYYCQHSRDLTFPFGGGTKLEIKR
notes: Probably the same antibody as m13; also called vH3 (vL2 group)
- Kd [1]: 0.59 nM
- Kd [2]: 0.23 nM
- EC50-adipocyte [3]: 5.5 nM
- EC50 reporter assay [3]: 0.68 nM

B2: antibody 1G19 (antibody, V domains shown)
VH: QVQLQESGPGLVKPSQSLSLTCSVTGYSITSGYYWNWIRQFPGNKLEWMGYINYGGSNNYNPSLKNRISITRDTSKNQFFLKLTSVTTEDTATYYCARRGAYYSNYDSFDVWGTGTTVTVSS
VL: DIKMTQSPSSMYASLGERVTITCKASQDINSYLSWFQQKPGKSPKTLIYRANRLVDGVPSRFSGSGSGQDYSLTISSLEYEEMGIYYCLQYDEFPYTFGGGTKLEIK
notes: Murine monoclonal antibody
- hAdip pERK assay EC50, Experiment - B [4]: 1.3 nM
- HEK293 huKLB/R1c reporter assay EC50, Experiment - A [5]: 0.231 nM
- HEK293 huKLB/R1c reporter assay EC50, Experiment - B [5]: 0.127 nM
- HEK293 cynoKLB/R1c reporter assay EC50, Experiment - A [6]: 2.35 nM
- HEK293 cynoKLB/R1c reporter assay EC50, Experiment - B [6]: 2.45 nM
- Mean Florescence Intensity (MFI) [7]: 29 MFI
- Mean Florescence Intensity (MFI) [8]: 2.2 MFI
